Measurements reported in article PMC10427353, “MSL1 Promotes Liver Regeneration by Driving Phase Separation of STAT3 and Histone H4 and Enhancing Their Acetylation” (Advanced Science, 2023).

Experiments:
[1] = molecular target: T1, H4 (recombinant, pET‐28a) (mouse, UniProt P62806 1-103); assay: co-sedimentation; sedimentation assay of condensates: purified proteins mixed in phase separation buffer (20 mM HEPES pH 7.8, NaCl, PEG‐8000), 15 000 g for 10 min, supernatant and pellet on SDS–PAGE with Coomassie staining; settings: both partners purified
T1 construct: histone H4 in pET‐28a; cDNA amplified from mouse liver; The legend of the sedimentation assay names 'H4'; also called histone H4; source: E. coli BL21, purified (HiTrap HP chelating column)

[2] = molecular target: T2, STAT3 (recombinant, pET‐28a) (mouse, UniProt P42227 1-770); assay: as above; settings: both partners purified
T2 construct: STAT3 in pET‐28a; cDNA amplified from mouse liver; The legend of the sedimentation assay names 'STAT3'; source: E. coli BL21, purified (HiTrap HP chelating column)
T2 sequence (P42227 whole entry): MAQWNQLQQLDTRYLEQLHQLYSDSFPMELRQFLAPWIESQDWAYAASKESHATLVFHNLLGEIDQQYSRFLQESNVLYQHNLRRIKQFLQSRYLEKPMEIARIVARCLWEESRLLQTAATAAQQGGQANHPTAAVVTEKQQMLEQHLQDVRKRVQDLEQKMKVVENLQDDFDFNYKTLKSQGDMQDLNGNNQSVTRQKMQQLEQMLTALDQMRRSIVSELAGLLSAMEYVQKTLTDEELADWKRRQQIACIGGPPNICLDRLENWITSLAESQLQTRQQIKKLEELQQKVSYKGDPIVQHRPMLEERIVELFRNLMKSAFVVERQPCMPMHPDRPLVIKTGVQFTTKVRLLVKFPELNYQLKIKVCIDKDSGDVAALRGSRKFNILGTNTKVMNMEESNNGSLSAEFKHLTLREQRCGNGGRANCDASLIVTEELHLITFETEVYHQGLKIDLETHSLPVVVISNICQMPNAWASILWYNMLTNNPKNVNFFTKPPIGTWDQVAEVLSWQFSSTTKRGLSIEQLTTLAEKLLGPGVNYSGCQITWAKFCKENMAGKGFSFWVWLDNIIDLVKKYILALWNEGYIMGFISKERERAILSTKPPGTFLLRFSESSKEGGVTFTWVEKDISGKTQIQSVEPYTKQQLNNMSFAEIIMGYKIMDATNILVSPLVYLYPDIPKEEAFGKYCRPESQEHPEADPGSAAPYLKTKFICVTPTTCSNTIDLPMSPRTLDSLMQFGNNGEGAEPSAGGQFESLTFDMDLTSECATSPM

binding result [1]: binds
binding result [2]: binds
B1: MSL1 (recombinant, pET‐28a) (natural protein, mouse, UniProt Q6PDM1 1-616, looked up)
chain: MTMRSAVFKAAAAPAGGNPEQRLDYERAAALGGPEDESGAAEAHFLPRHRKLKEPGPPLASSQGGSPSPSPAGCGGGKGRGLLLPAGAAPGQQEESWGGSVPLPCPPPATKQAGIGGEPVAAGAGCSPRPKYQAVLPIQTGSIVVAAAKEPTPWAGDKGGAAPPAATASDPAGPPPLPLPGPPPLAPTATAGTLAASEGRWKSIRKSPLGGGGGSGASSQAACLKQILLLQLDLIEQQQQQLQAKEKEIEELKSERDTLLARIERMERRMQLVKRDNEKERHKLLQGYEPEEREEAELSEKIKLERQPELCETSQALPSKPFSCGRSGKGHKRKTPFGNTERKTPVKKLAPEFSKVKTKTPKHSPIKEEPCGSISETVCKRELRSQETPEKPRSSVDTPPRLSTPQKGPSTHPKEKAFSSEMEDLPYLSTTEMYLCRWHQPPPSPLPLRESSPKKEETVARCLMPSSVAGETSVLAVPSWRDHSVEPLRDPNPSDILENLDDSVFSKRHAKLELDEKRRKRWDIQRIREQRILQRLQLRMYKKKGIQESEPEVTSFFPEPDDVESLLITPFLPVVAFGRPLPKLAPQNFELPWLDERSRCRLEIQKKHTPHRTCRK
notes: MSL1 in pET‐28a; cDNA amplified from mouse liver; The legend of the sedimentation assay names 'MSL1'; source: E. coli BL21, purified (HiTrap HP chelating column)
